Patent US20220220224A1 (Hoffmann-La Roche, published 2022)

Experiments:
[1] = target: T1, recombinant biotinylated monomeric Fc fusion of cynomolgus Folate Receptor 1 (cy FolR1 ECD-AcTev-Fcknob-Avi … (cynomolgus, UniProt P0DOX5 223-449 = IgG part, biotin on the C-terminal Avi tag)); assay: SPR Biacore, affinity (monovalent), antibody captured via anti-Fab
T1 construct: also called cyFolR1-Fc; cyno FolR1
Protocol: (§1) Binding of FolR1 binders as IgG or in the T-cell bispecific format to different recombinant folate receptors (human FolR1, 2 and 3, murine FolR1 and cynomolgus FolR1; all as Fc fusions) was assessed by surface plasmon resonance (SPR). All SPR experiments were performed on a Biacore T200 at 25° C. with HBS-EP as running buffer (0.01 M HEPES pH 7.4, 0.15 M NaCl, 3 mM EDTA, 0.005% Surfactant P20, Biacore, Freiburg/Germany).
For affinity measurement, direct coupling of around 6000-7000 resonance units (RU) of the anti-human Fab specific antibody (Fab capture kit, GE Healthcare) was performed on a CM5 chip at pH 5.0 using the standard amine coupling kit (GE Healthcare). Anti-FolR1 IgGs or T cell bispecifics were captured at 20 nM with a flow rate of 10 μl/min for 20 or 40 sec, the reference flow cell was left without capture. Dilution series (6.17 to 500 nM or 12.35 to 3000 nM) of human or cyno Folate Receptor 1 Fc fusion were passed on all flow cells at 30 μl/min for 120 or 240 sec to record the association phase. The dissociation phase was monitored for 240 s and triggered by switching from the sample solution to HBS-EP. The chip surface was regenerated after every cycle using a double injection of 60 sec 10 mM Glycine-HCl pH 2.1 or pH 1.5. Bulk refractive index differences were corrected for by subtracting the response obtained on the reference flow cell 1. The affinity constants for the interactions were derived from the rate constants by fitting to a 1:1 Langmuir binding using the Bia Evaluation software (GE Healthcare).

[2] = target: T1, recombinant biotinylated monomeric Fc …; assay: SPR Biacore, avidity (bivalent, apparent KD), antigen-Fc on SA chip
Protocol: as §1
Recombinant biotinylated monomeric Fc fusions of human, cynomolgus and murine Folate Receptor 1 (FolR1-Fc) were directly coupled on a SA chip using the standard coupling instruction (Biacore, Freiburg/Germany). The immobilization level was about 300-400 RU. The anti-FolR1 IgGs or T cell bispecifics were passed at a concentration range from 2.1 to 500 nM with a flow of 30 μL/minutes through the flow cells over 180 seconds. The dissociation was monitored for 600 seconds. Bulk refractive index differences were corrected for by subtracting the response obtained on reference flow cell immobilized with recombinant biotinylated IL2 receptor Fc fusion. […] The binding curves resulting from the bivalent binding of the IgGs or T cell bispecifics were approximated to a 1:1 Langmuir binding and fitted with that model (which is not correct, but gives an idea of the avidity). The apparent avidity constants for the interactions were derived from the rate constants of the fitting using the Bia Evaluation software (GE Healthcare).

[3] = target: T2, recombinant biotinylated monomeric Fc fusion of human Folate Receptor 2 (hu FolR2 ECD-AcTev-Fcknob-Avi tag … (human, UniProt P0DOX5 223-449 = IgG part, biotin on the C-terminal Avi tag)); assay: SPR ProteOn, Fab analyte on immobilized antigen-Fc
T2 construct: also called FolR2-Fc
Protocol: (§2) Immobilization of antigens (ligand): Recombinant antigens were diluted with PBST (10 mM phosphate, 150 mM sodium chloride pH 7.4, 0.005% Tween 20) to 10 μg/ml, then injected at 30 μl/minute in vertical orientation. Injection of analytes: For ‘one-shot kinetics’ measurements, injection direction was changed to horizontal orientation, two-fold dilution series of purified Fab (varying concentration ranges) were injected simultaneously along separate channels 1-5, with association times of 200 s, and dissociation times of 600 s. Buffer (PBST) was injected along the sixth channel to provide an “in-line” blank for referencing. Association rate constants (kₒₙ) and dissociation rate constants (koff) were calculated using a simple one-to-one Langmuir binding model in ProteOn Manager v3.1 software by simultaneously fitting the association and dissociation sensorgrams. The equilibrium dissociation constant (KD) was calculated as the ratio koff/kₒₙ.

[4] = target: T1, recombinant biotinylated monomeric Fc …; assay: SPR ProteOn, Fab analyte on immobilized antigen-Fc
Protocol: as §2

[5] = target: T3, recombinant biotinylated monomeric Fc fusion of human Folate Receptor 3 (hu FolR3 ECD-AcTev-Fcknob-Avi tag … (human, UniProt P0DOX5 223-449 = IgG part, biotin on the C-terminal Avi tag)); assay: SPR ProteOn, Fab analyte on immobilized antigen-Fc
T3 construct: also called FolR3-Fc
Protocol: as §2

[6] = target: T4, recombinant biotinylated monomeric Fc fusion of human Folate Receptor 1 (huFolR1 ECD-AcTev-Fcknob-Avi tag … (human, UniProt P0DOX5 223-449 = IgG part, biotin on the C-terminal Avi tag)); assay: SPR ProteOn, Fab analyte on immobilized antigen-Fc
T4 construct: also called huFolR1-Fc; human FolR1-Fc
Protocol: as §2

[7] = target: T5, recombinant biotinylated monomeric Fc fusion of murine Folate Receptor 1 (mu FolR1 ECD-AcTev-Fcknob-Avitag … (murine, UniProt P0DOX5 223-449 = IgG part, biotin on the C-terminal Avi tag)); assay: SPR ProteOn, Fab analyte on immobilized antigen-Fc
T5 construct: also called muFolR1-Fc; murine FolR1
Protocol: as §2

[8] = target: T6, human FolR2 on transfected HEK cells (human, UniProt P14207 17-230); assay: flow cytometry on transfected HEK cells
T6 construct: whole, on cells
T6 sequence (P14207 17-230): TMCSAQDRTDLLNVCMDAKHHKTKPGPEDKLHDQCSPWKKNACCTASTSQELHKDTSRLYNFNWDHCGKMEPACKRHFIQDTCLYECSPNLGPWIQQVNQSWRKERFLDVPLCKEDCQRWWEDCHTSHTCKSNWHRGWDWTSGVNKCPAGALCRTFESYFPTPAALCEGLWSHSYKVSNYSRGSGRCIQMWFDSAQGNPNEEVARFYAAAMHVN

[9] = target: T2, recombinant biotinylated monomeric Fc …; assay: SPR Biacore, single injection on immobilized antigen-Fc
Protocol: as §1
(§3) First the anti-FolR1 IgGs were analyzed by single injections (Table 1) to characterize their crossreactivity (to human, murine and cyno FolR1) and specificity (to human FolR1, human FolR2, human FolR3). Recombinant biotinylated monomeric Fc fusions of human, cynomolgus and murine Folate Receptor 1 (FolR1-Fc) or human Folate Receptor 2 and 3 (FolR2-Fc, FolR3-Fc) were directly coupled on a SA chip using the standard coupling instruction (Biacore, Freiburg/Germany). The immobilization level was about 300-400 RU. The IgGs were injected for 60 seconds at a concentration of 500 nM.

[10] = target: T5, recombinant biotinylated monomeric Fc …; assay: as above
Protocol: as §1, §3

[11] = target: T5, recombinant biotinylated monomeric Fc …; assay: SPR ProteOn, Fab analyte on immobilized antigen-Fc; remark: listed apart in the source
Protocol: Immobilization of antigens (ligand): Recombinant antigens were diluted with PBST (10 mM phosphate, 150 mM sodium chloride pH 7.4, 0.005% Tween 20) to 10 μg/ml, then injected at 30 μl/minute in vertical orientation. Injection of analytes: For ‘one-shot kinetics’ measurements, injection direction was changed to horizontal orientation, two-fold dilution series of purified Fab (varying concentration ranges) were injected simultaneously along separate channels 1-5, with association times of 150 or 200 s, and dissociation times of 200 or 600 s, respectively. Buffer (PBST) was injected along the sixth channel to provide an “in-line” blank for referencing. Association rate constants (kₒₙ) and dissociation rate constants (koff) were calculated using a simple one-to-one Langmuir binding model in ProteOn Manager v3.1 software by simultaneously fitting the association and dissociation sensorgrams. The equilibrium dissociation constant (KD) was calculated as the ratio koff/kₒₙ.

Row | Binder | binding result [3] | binding result [5] | binding result [7] | also measured
1 | Farletuzumab (antibody, V domains shown) VH: EVQLVESGGGVVQPGRSLRLSCSASGFTFSGYGLSWVRQAPGKGLEWVAMISSGGSYTYYADSVKGRFAISRDNAKNTLFLQMDSLRPEDTGVYFCARHGDDPAWFAYWGQGTPVTVSS VL: DIQLTQSPSSLSASVGDRVTITCSVSSSISSNNLHWYQQKPGKAPKPWIYGTSNLASGVPSRFSGSGSGTDYTFTISSLQPEDIATYYCQQWSSYPYMYTFGQGTKVEIKR |  |  |  | Kd [1]: 67.3 nM; Kd [2]: 0.65 nM
2 | 15B6 Fab (Fab, V domains shown, bacterial Fab) VH: QVQLVQSGAEVKKPGASVKVSCKASGYTFTSYYMHWVRQAPGQGLEWMGIINPSGGSTSYAQKFQGRVTMTRDTSTSTVYMELSSLRSEDTAVYYCARNYYIGIVPFDYWGQGTLVTVSS VL: QAVVTQEPSLTVSPGGTVTLTCGSSTGAVTTSNYANWVQEKPGQAFRGLIGGTNKRAPGTPARFSGSLLGGKAALTLSGAQPEDEAEYYCALWYSNLWVFGGGTKLTVL | no binding | no binding | no binding | Kd [4]: 13.9 nM; Kd [6]: 19.1 nM
3 | 21A5 Fab (Fab, V domains shown, bacterial Fab) VH: not shown VL: QAVVTQEPSLTVSPGGTVTLTCGSSTGAVTTSNYANWVQEKPGQAFRGLIGGTNKRAPGTPARFSGSLLGGKAALTLSGAQPEDEAEYYCALWYSNLWVFGGGTKLTVL | no binding |  | no binding | 
4 | 16D5 Fab (Fab, V domains shown, bacterial Fab) VH: not shown VL: QAVVTQEPSLTVSPGGTVTLTCGSSTGAVTTSNYANWVQEKPGQAFRGLIGGTNKRAPGTPARFSGSLLGGKAALTLSGAQPEDEAEYYCALWYSNLWVFGGGTKLTVL | no binding | no binding | no binding | 
5 | 21G8 Fab (Fab, V domains shown, bacterial Fab) VH: not shown VL: QAVVTQEPSLTVSPGGTVTLTCGSSTGAVTTSNYANWVQEKPGQAFRGLIGGTNKRAPGTPARFSGSLLGGKAALTLSGAQPEDEAEYYCALWYSNLWVFGGGTKLTVL |  |  | no binding | 
6 | 16F12 Fab (Fab, V domains shown, bacterial Fab) VH: QVQLVQSGAEVKKPGASVKVSCKASGYTFTSYYMHWVRQAPGQGLEWMGIINPSGGSTSYAQKFQGRVTMTRDTSTSTVYMELSSLRSEDTAVYYCARNFTVLRVPFDYWGQGTLVTVSS VL: QAVVTQEPSLTVSPGGTVTLTCGSSTGAVTTSNYANWVQEKPGQAFRGLIGGTNKRAPGTPARFSGSLLGGKAALTLSGAQPEDEAEYYCALWYSNLWVFGGGTKLTVL | no binding | no binding | no binding | Kd [4]: 90.9 nM; Kd [6]: 68 nM
7 | 21A5 IgG (antibody, V domains shown, human IgG1) VH: not shown VL: QAVVTQEPSLTVSPGGTVTLTCGSSTGAVTTSNYANWVQEKPGQAFRGLIGGTNKRAPGTPARFSGSLLGGKAALTLSGAQPEDEAEYYCALWYSNLWVFGGGTKLTVL |  |  |  | binding result [8]: no binding; binding result [9]: no binding (tested: 500 nM); binding result [10]: no binding (tested: 500 nM)
8 | 5D9 Fab (Fab, V domains shown, bacterial Fab) VH: QVQLVQSGAEVKKPGASVKVSCKASGYTFTSYYMHWVRQAPGQGLEWMGIINPSGGSTSYAQKFQGRVTMTRDTSTSTVYMELSSLRSEDTAVYYCARSYIDMDYWGQGTLVTVSS VL: EIVLTQSPGTLSLSPGERATLSCRASQSVSSSYLAWYQQKPGQAPRLLIYGASSRATGIPDRFSGSGSGTDFTLTISRLEPEDFAVYYCQQDNWSPTFGQGTKVEIK |  |  |  | binding result [11]: no binding
9 | 6B6 Fab (Fab, V domains shown, bacterial Fab) VH: QVQLVQSGAEVKKPGASVKVSCKASGYTFTSYYMHWVRQAPGQGLEWMGIINPSGGSTSYAQKFQGRVTMTRDTSTSTVYMELSSLRSEDTAVYYCARSYVDMDYWGQGTLVTVSS VL: EIVLTQSPGTLSLSPGERATLSCRASQSVSSSYLAWYQQKPGQAPRLLIYGASSRATGIPDRFSGSGSGTDFTLTISRLEPEDFAVYYCQQDIWSPTFGQGTKVEIK |  |  |  | binding result [11]: no binding
